{"source": "paper PMC10733448", "about": "“An aptamer and Au/Si CCA based SERS sensor for ultra-sensitive detection of Vimentin during EMT in gastric cancer”", "biological_target": "Vimentin (UniProt P08670 2-466)", "sequence (P08670 2-466)": "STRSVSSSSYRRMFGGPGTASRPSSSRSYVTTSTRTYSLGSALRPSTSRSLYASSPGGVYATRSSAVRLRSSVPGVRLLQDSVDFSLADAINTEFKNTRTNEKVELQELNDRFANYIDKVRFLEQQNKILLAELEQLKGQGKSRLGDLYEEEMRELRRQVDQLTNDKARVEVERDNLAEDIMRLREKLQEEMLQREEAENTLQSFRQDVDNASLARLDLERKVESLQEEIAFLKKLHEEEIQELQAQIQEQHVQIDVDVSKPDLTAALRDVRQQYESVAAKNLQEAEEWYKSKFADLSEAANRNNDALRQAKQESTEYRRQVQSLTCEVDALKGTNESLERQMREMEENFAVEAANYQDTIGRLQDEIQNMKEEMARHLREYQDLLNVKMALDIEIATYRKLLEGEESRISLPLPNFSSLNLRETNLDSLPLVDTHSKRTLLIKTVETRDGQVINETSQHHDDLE", "assay": "SERS strand-displacement sensor (signal decrease on Vimentin addition); competes with hybridized complementary strand S3 (5-FAM); binding buffer, salt, pH and temperature not given in the material; aptamer on Au/Si CCA, complementary strand on AuNCs, 6-MCH blocking", "conditions": "label: none on the aptamer; reporter 5-FAM is on the complementary strand S3; before protein addition hybridized over its 3' 18 nt to SH-S3-5-FAM on Au nanocubes"}
{"binder": "TAGACCCAGCTGGTCCGGAAAATAAGATGTCACGGATCCTC (ssDNA, thiol (SH) printed at 5' end)", "note": "[Vimentin aptamer]", "values": [{"measurement": "binding result", "value": "binds"}]}
